According to the supplement of paper PMC10567573:

B1: PWWP2B (parent)
chain: TIRLRPRQVLCEKCKSTLSPPEAS

Variants of: B1
Experiment: protein stability index of a GFP-peptide fusion (GPS, HEK-293T) (PSI 1-6); higher = more stable
Conditions: c terminus: a fixed tail appended
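Note: lentivirally expressed fusions sorted by FACS into six bins by GFP to DsRed ratio, PSI derived from sequencing read proportions per bin multiplied by bin number.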

| Variant | protein stability index |
| --- | --- |
| TIRLRPRQVLCERCKSTLSPPEAS [K13R] | 3.37 |
| TIRLRPRQVLCEGCKSTLSPPEAS [K13G] | 2.6 |
| TIRLRPRQVLCEECKSTLSPPEAS [K13E] | 3.32 |
| TIRLRPRQVLCEQCKSTLSPPEAS [K13Q] | 2.83 |
| TIRLRPRQVLCEACKSTLSPPEAS [K13A] | 2.72 |
| TIRLRPRQVLCEMCKSTLSPPEAS [K13M] | 2.84 |
| TIRLRPRQVLCEDCKSTLSPPEAS [K13D] | 3.39 |
| TIRLRPRQVLCENCKSTLSPPEAS [K13N] | 2.78 |
| TIRLRPRQVLCECCKSTLSPPEAS [K13C] | 2.74 |
| TIRLRPRQVLCEHCKSTLSPPEAS [K13H] | 2.53 |
| TIRLRPRQVLCEICKSTLSPPEAS [K13I] | 2.73 |
| TIRLRPRQVLCETCKSTLSPPEAS [K13T] | 2.39 |
| TIRLRPRQVLCEYCKSTLSPPEAS [K13Y] | 2.24 |
| TIRLRPRQVLCESCKSTLSPPEAS [K13S] | 3 |
| TIRLRPRQVLCELCKSTLSPPEAS [K13L] | 1.81 |
| TIRLRPRQVLCEPCKSTLSPPEAS [K13P] | 3.22 |
| TIRLRPRQVLCEVCKSTLSPPEAS [K13V] | 2.71 |
| TIRLRPRQVLCEFCKSTLSPPEAS [K13F] | 2.46 |
| TIRLRPRQVLCEWCKSTLSPPEAS [K13W] | 2.49 |
| TIRLRPRQVLCPKCKSTLSPPEAS [E12P] | 2.99 |
| TIRLRPRQVLCLKCKSTLSPPEAS [E12L] | 1.97 |
| TIRLRPRQVLCTKCKSTLSPPEAS [E12T] | 2.82 |
| TIRLRPRQVLCDKCKSTLSPPEAS [E12D] | 3.28 |
| TIRLRPRQVLCAKCKSTLSPPEAS [E12A] | 2.59 |

| Variant | protein stability index |
| --- | --- |
| TIRLRPRQVLCVKCKSTLSPPEAS [E12V] | 2.39 |
| TIRLRPRQVLCRKCKSTLSPPEAS [E12R] | 3.08 |
| TIRLRPRQVLCSKCKSTLSPPEAS [E12S] | 3.01 |
| TIRLRPRQVLCWKCKSTLSPPEAS [E12W] | 2.28 |
| TIRLRPRQVLCYKCKSTLSPPEAS [E12Y] | 2.2 |
| TIRLRPRQVLCQKCKSTLSPPEAS [E12Q] | 2.33 |
| TIRLRPRQVLCGKCKSTLSPPEAS [E12G] | 2.59 |
| TIRLRPRQVLCMKCKSTLSPPEAS [E12M] | 2.26 |
| TIRLRPRQVLCKKCKSTLSPPEAS [E12K] | 2.42 |
| TIRLRPRQVLCIKCKSTLSPPEAS [E12I] | 1.93 |
| TIRLRPRQVLCCKCKSTLSPPEAS [E12C] | 2.26 |
| TIRLRPRQVLCNKCKSTLSPPEAS [E12N] | 2.81 |
| TIRLRPRQVLCHKCKSTLSPPEAS [E12H] | 3.03 |
| TIRLRPRQVLCFKCKSTLSPPEAS [E12F] | 2.25 |
| TIRLRPRQVLCEKMKSTLSPPEAS [C14M] | 3.44 |
| TIRLRPRQVLCEKDKSTLSPPEAS [C14D] | 4.04 |
| TIRLRPRQVLCEKAKSTLSPPEAS [C14A] | 3.85 |
| TIRLRPRQVLCEKKKSTLSPPEAS [C14K] | 4.05 |
| TIRLRPRQVLCEKLKSTLSPPEAS [C14L] | 3.13 |
| TIRLRPRQVLCEKRKSTLSPPEAS [C14R] | 3.32 |
| TIRLRPRQVLCEKTKSTLSPPEAS [C14T] | 4.22 |
| TIRLRPRQVLCEKEKSTLSPPEAS [C14E] | 4.23 |
| TIRLRPRQVLCEKIKSTLSPPEAS [C14I] | 3.64 |
| TIRLRPRQVLCEKGKSTLSPPEAS [C14G] | 4.08 |

| Variant | protein stability index |
| --- | --- |
| TIRLRPRQVLCEKYKSTLSPPEAS [C14Y] | 3.45 |
| TIRLRPRQVLCEKVKSTLSPPEAS [C14V] | 3.52 |
| TIRLRPRQVLCEKFKSTLSPPEAS [C14F] | 3.19 |
| TIRLRPRQVLCEKNKSTLSPPEAS [C14N] | 4.05 |
| TIRLRPRQVLCEKWKSTLSPPEAS [C14W] | 2.58 |
| TIRLRPRQVLCEKHKSTLSPPEAS [C14H] | 3.52 |
| TIRLRPRQVLCEKQKSTLSPPEAS [C14Q] | 4.05 |
| TIRLRPRQVLCEKPKSTLSPPEAS [C14P] | 4.29 |
| TIRLRPRQVLCEKSKSTLSPPEAS [C14S] | 3.84 |
| TIRLRPRQVLTEKCKSTLSPPEAS [C11T] | 3.6 |
| TIRLRPRQVLYEKCKSTLSPPEAS [C11Y] | 3.25 |
| TIRLRPRQVLSEKCKSTLSPPEAS [C11S] | 3.73 |
| TIRLRPRQVLREKCKSTLSPPEAS [C11R] | 3.4 |
| TIRLRPRQVLQEKCKSTLSPPEAS [C11Q] | 3.57 |
| TIRLRPRQVLWEKCKSTLSPPEAS [C11W] | 2.23 |
| TIRLRPRQVLVEKCKSTLSPPEAS [C11V] | 3.25 |
| TIRLRPRQVLCEKCKFTLSPPEAS [S16F] | 2.18 |
| TIRLRPRQVLCEKCKETLSPPEAS [S16E] | 3.65 |
| TIRLRPRQVLCEKCKDTLSPPEAS [S16D] | 2.78 |
| TIRLRPRQVLCEKCKITLSPPEAS [S16I] | 2.66 |
| TIRLRPRQVLCEKCKCTLSPPEAS [S16C] | 2.98 |
| TIRLRPRQVLCEKCKHTLSPPEAS [S16H] | 2.76 |
| TIRLRPRQVLCEKCKMTLSPPEAS [S16M] | 2.94 |
| TIRLRPRQVLCEKCKKTLSPPEAS [S16K] | 3.09 |

| Variant | protein stability index |
| --- | --- |
| TIRLRPRQVLCEKCKGTLSPPEAS [S16G] | 3.07 |
| TIRLRPRQVLCEKCKATLSPPEAS [S16A] | 3.08 |
| TIRLRPRQVLCEKCKLTLSPPEAS [S16L] | 2.59 |
| TIRLRPRQVLCEKCFSTLSPPEAS [K15F] | 3.01 |
| TIRLRPRQVLCEKCPSTLSPPEAS [K15P] | 4.03 |
| TIRLRPRQVLCEKCGSTLSPPEAS [K15G] | 2.83 |
| TIRLRPRQVLCEKCTSTLSPPEAS [K15T] | 3.07 |
| TIRLRPRQVLCEKCRSTLSPPEAS [K15R] | 2.59 |
| TIRLRPRQVLCEKCLSTLSPPEAS [K15L] | 2.76 |
| TIRLRPRQVLCEKCISTLSPPEAS [K15I] | 2.51 |
| TIRLRPRQVLCEKCNSTLSPPEAS [K15N] | 3.26 |
| TIRLRPRQVLCEKCMSTLSPPEAS [K15M] | 2.79 |
| TIRLRPRQVLCEKCSSTLSPPEAS [K15S] | 2.74 |
| TIRLRPRQVLCEKCHSTLSPPEAS [K15H] | 2.57 |
| TIRLRPRQVLCEKCDSTLSPPEAS [K15D] | 3.58 |
| TIRLRPRQVLCEKCWSTLSPPEAS [K15W] | 2.76 |
| TIRLRPRQVLCEKCCSTLSPPEAS [K15C] | 2.41 |
| TIRLRPRQVLCEKCVSTLSPPEAS [K15V] | 2.71 |
| TIRLRPRQVLCEKCYSTLSPPEAS [K15Y] | 2.73 |
| TIRLRPRQVLCEKCASTLSPPEAS [K15A] | 2.71 |
| TIRLRPRQVLCEKCESTLSPPEAS [K15E] | 3.72 |
| TIRLRPRQVLCEKCQSTLSPPEAS [K15Q] | 2.72 |
